The test deals with biotinylated γTuRC-mBFP-AviTag (human | human (endogenous in HeLa-Kyoto)) (UniProt Q9BSJ2). The test can be described thus: TIRF microscopy; γTuRC nucleation assay: biotinylated γTuRC-mBFP-AviTag held on the glass by NeutrAvidin (1-2.5 nM used), 11-15 µM tubulin, 1 mM GTP, 1 mM ATP, with or without mScarlet-KIF2A (20-100 nM), mCherry-MCAK or spastin (100 nM); 33°C, 20-30 min.

This is an account of results in article PMC10450741.

microtubules polymerised from pig brain tubulin, sequence (P02550 whole entry): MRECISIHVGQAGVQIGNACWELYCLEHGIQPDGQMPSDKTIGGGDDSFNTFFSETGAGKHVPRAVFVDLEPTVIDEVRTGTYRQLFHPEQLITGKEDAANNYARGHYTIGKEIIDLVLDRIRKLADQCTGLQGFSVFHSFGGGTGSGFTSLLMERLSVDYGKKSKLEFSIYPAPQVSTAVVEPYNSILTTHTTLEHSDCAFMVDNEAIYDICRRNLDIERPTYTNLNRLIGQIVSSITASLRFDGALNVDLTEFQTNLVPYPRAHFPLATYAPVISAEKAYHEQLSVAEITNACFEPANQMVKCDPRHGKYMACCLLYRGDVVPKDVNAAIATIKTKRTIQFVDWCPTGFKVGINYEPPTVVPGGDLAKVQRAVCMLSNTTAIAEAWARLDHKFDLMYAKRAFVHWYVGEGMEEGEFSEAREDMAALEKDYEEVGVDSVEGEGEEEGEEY
microtubules polymerised from pig brain tubulin, sequence (Q767L7 whole entry): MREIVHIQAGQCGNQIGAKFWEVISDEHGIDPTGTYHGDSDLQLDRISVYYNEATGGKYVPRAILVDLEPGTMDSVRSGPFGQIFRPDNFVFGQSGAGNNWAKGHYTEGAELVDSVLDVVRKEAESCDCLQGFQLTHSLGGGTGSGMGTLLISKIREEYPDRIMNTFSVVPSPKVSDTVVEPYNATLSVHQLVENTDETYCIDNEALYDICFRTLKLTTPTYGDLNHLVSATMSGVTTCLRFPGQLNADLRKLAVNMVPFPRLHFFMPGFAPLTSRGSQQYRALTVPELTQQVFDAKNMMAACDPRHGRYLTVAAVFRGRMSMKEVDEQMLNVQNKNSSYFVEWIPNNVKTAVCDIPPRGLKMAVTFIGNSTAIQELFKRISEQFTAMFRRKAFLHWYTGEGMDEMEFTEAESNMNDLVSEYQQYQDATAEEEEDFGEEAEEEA
biotinylated γTuRC-mBFP-AviTag (human | human (endogenous in HeLa-Kyoto)), sequence (Q9BSJ2 whole entry, looked up): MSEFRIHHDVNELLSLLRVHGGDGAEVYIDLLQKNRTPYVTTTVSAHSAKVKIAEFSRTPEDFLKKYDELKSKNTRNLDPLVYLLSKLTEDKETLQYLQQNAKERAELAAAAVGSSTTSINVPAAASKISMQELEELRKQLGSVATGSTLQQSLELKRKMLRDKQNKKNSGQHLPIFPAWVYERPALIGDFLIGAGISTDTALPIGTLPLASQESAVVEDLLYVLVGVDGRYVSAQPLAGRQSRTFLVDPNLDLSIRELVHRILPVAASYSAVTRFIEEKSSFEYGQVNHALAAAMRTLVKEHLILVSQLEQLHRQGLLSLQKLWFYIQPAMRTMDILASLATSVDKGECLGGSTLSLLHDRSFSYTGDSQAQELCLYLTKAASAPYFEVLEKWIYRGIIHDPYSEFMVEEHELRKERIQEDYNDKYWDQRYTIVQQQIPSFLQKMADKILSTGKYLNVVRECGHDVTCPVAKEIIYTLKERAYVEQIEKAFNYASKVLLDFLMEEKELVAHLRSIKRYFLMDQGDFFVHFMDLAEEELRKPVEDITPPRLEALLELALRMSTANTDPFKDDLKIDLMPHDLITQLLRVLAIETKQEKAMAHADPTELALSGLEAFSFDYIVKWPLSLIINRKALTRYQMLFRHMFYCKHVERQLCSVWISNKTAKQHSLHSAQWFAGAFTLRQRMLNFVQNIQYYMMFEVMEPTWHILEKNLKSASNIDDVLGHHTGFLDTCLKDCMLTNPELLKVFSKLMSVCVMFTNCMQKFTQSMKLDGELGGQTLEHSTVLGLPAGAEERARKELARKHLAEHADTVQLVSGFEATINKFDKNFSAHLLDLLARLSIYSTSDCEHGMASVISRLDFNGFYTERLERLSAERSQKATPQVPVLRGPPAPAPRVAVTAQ

On to “microtubules polymerised from pig brain tubulin (from UniProt P02550 1-451; Q767L7 1-444) (complex)”, for which the percent of microtubules released from immobilized γTuRC (with 20 nM mScarlet-KIF2A alone) amounted to 2%; the percent of microtubules released from immobilized γTuRC (with 100 nM spastin alone) was found to be 1%; the percent of microtubules released from immobilized γTuRC (with 100 nM spastin and 20 nM mScarlet-KIF2A) worked out at 40%.
